Experimental data: FireProtDB

Details: whole UniProt chain shown
[1] = Pyrococcus furiosus (strain ATCC 43587 / DSM 3638 / JCM 8422 / Vc1), pH 7, 40 °C, GdnHCl, CD, Tris-HCl 20 mM, reversible: yes
[2] = Pyrococcus furiosus (strain ATCC 43587 / DSM 3638 / JCM 8422 / Vc1), pH 7, 60 °C, GdnHCl, CD, Tris-HCl 20 mM, reversible: yes
[3] = Rattus norvegicus, pH 7.5, Thermal, CD, phosphate 10 mM, NaF 100 mM, reversible: yes
[4] = Rattus norvegicus, pH 7, 25 °C, Urea, CD, Sodium phosphate 25 mM, NaCl 75 mM, reversible: yes
[5] = Rattus norvegicus, pH 7, 25 °C, Urea, Fluorescence, Sodium phosphate 25 mM, NaCl 75 mM, reversible: yes
[6] = Rattus norvegicus, pH 7, 27 °C, Urea, CD, Phosphate 10 mM
[7] = Rattus norvegicus, pH 7, 27 °C, Urea, Magnetic Relaxation Dispersion, Phosphate 10 mM
[8] = Rattus norvegicus, pH 7.2, 20 °C, GdnHCl, Fluorescence, Potassium phosphate 20 mM, reversible: yes
[9] = Rattus norvegicus, pH 7.4, 20 °C, GdnHCl, CD, Potassium phosphate 20 mM, reversible: yes
[10] = Rattus norvegicus, pH 7.4, 20 °C, GdnHCl, Fluorescence, Potassium phosphate 20 mM, reversible: yes
[11] = Rattus norvegicus, pH 8, 25 °C, Urea, CD, NaH2PO4 25 mM/, NaCl 75 mM, reversible: Yes
[12] = Rattus norvegicus, pH 8, 25 °C, Urea, Fluorescence, NaH2PO4 25 mM/, NaCl 75 mM, reversible: Yes
[13] = Rattus norvegicus, pH 9.6, 20 °C, GdnHCl, Fluorescence, Sodium pyrophosphate 20 mM, reversible: yes

B1: Cytochrome c2 wild type, P00094 (protein)
chain: MKISLTAATVAALVLAAPAFAGDAAKGEKEFNKCKTCHSIIAPDGTEIVKGAKTGPNLYGVVGRTAGTYPEFKYKDSIVALGASGFAWTEEDIATYVKDPGAFLKEKLDDKKAKTGMAFKLAKGGEDVAAYLASVVK
- denaturant midpoint (higher = more stable) (Rhodobacter capsulatus (strain ATCC BAA-309 / NBRC 16581 / SB1003), pH 7.5, 30 °C, GdnHCl, CD, Tris 20 mM): 1.54 M

B2: Cytochrome b5 wild type, P00173 (protein)
chain: MAEQSDKDVKYYTLEEIQKHKDSKSTWVILHHKVYDLTKFLEEHPGGEEVLREQAGGDATENFEDVGHSTDARELSKTYIIGELHPDDRSKIAKPSETLITTVESNSSWWTNWVIPAISALVVALMYRLYMAED
- Tm (Rattus norvegicus, pH 7, Thermal, UV spectroscopy, Sodium phosphate 50 mM, reversible: Yes): 93.1 °C

B3: Pyrrolidone-carboxylate peptidase wild type, O73944 (protein)
chain: MKVLVTGFEPFGGEKINPTERIAKDLDGIKIGDAQVFGRVLPVVFGKAKEVLEKTLEEIKPDIAIHVGLAPGRSAISIERIAVNAIDARIPDNEGKKIEDEPIVPGAPTAYFSTLPIKKIMKKLHERGIPAYISNSAGLYLCNYVMYLSLHHSATKGYPKMSGFIHVPYIPEQIIDKIGKGQVPPSMCYEMELEAVKVAIEVALEELL
- denaturant m value [1]: 4.66 kcal/mol/M
- denaturant midpoint (higher = more stable) [1]: 0.4 M
- unfolding free energy [1]: 1.82 kcal/mol
- denaturant m value [2]: 4.13 kcal/mol/M
- denaturant midpoint (higher = more stable) [2]: 3.2 M
- unfolding free energy [2]: 13 kcal/mol

B4: Parvalbumin alpha wild type, P02625 (protein)
chain: MSMTDLLSAEDIKKAIGAFTAADSFDHKKFFQMVGLKKKSADDVKKVFHILDKDKSGFIEEDELGSILKGFSSDARDLSAKETKTLMAAGDKDGDGKIGVEEFSTLVAES
- unfolding free energy (Rattus norvegicus, pH 7.74, 30 °C, Thermal, CD, piperazine 10 mM, KCl 200 mM): 0.7 kcal/mol
- Tm (Rattus norvegicus, pH 7.74, Thermal, CD, piperazine 10 mM, KCl 200 mM): 35 °C

B5: Cytochrome b5 type B wild type, P04166 (protein)
chain: MATPEASGSGRNGQGSDPAVTYYRLEEVAKRNTAEETWMVIHGRVYDITRFLSEHPGGEEVLLEQAGADATESFEDVGHSPDAREMLKQYYIGDVHPNDLKPKDGDKDPSKNNSCQSSWAYWIVPIVGAILIGFLYRHFWADSKSS
- denaturant midpoint (higher = more stable) (Rattus norvegicus, pH 7, 25 °C, GdmSCN, UV/visible spectrophotometer, MOPS 30mM): 2.04 M
- Tm (Rattus norvegicus, pH 7, Thermal, UV/visible spectrophotometer, Potassium phosphate 50mM): 85.5 °C

B6: Homeobox protein Nkx-2.1 wild type, P23441 (protein)
chain: MSMSPKHTTPFSVSDILSPLEESYKKVGMEGGGLGAPLAAYRQGQAAPPAAAMQQHAVGHHGAVTAAYHMTAAGVPQLSHSAVGGYCNGNLGNMSELPPYQDTMRNSASGPGWYGANPDPRFPAISRFMGPASGMNMSGMGGLGSLGDVSKNMAPLPSAPRRKRRVLFSQAQVYELERRFKQQKYLSAPEREHLASMIHLTPTQVKIWFQNHRYKMKRQAKDKAAQQQLQQDSGGGGGGGGGAGCPQQQQAQQQSPRRVAVPVLVKDGKPCQAGAPAPGAASLQGHAQQQAQQQAQAAQAAAAAISVGSGGAGLGAHPGHQPGSAGQSPDLAHHAASPAALQGQVSSLSHLNSSGSDYGAMSCSTLLYGRTW
- unfolding free energy (Rattus norvegicus, pH 7.5, 25 °C, Urea, CD, phosphate 10 mM, NaF 100 mM, reversible: yes): 1.26 kcal/mol
- Tm [3]: 42.8 °C
- unfolding free energy [3]: 1.44 kcal/mol

B7: Fatty acid-binding protein, brain wild type, P55051 (protein)
chain: MVDAFCATWKLTDSQNFDEYMKALGVGFATRQVGNVTKPTVIISQEGGKVVIRTQCTFKNTEISFQLGEEFEETSIDDRNCKSVIRLDGDKLIHVQKWDGKETNCVREIKDGKMVVTLTFGDVVAVRCYEKA
- denaturant m value [4]: 1.04 kcal/mol/M
- denaturant midpoint (higher = more stable) [4]: 4.1 M
- unfolding free energy [4]: 4.28 kcal/mol
- denaturant m value [5]: 1.13 kcal/mol/M
- denaturant midpoint (higher = more stable) [5]: 4.24 M
- unfolding free energy [5]: 4.79 kcal/mol
- denaturant m value [6]: 1 kcal/mol/M
- denaturant midpoint (higher = more stable) [6]: 5.1 M
- denaturant m value [7]: 0.88 kcal/mol/M
- denaturant midpoint (higher = more stable) [7]: 6.5 M
- denaturant midpoint (higher = more stable) [8]: 1.36 M
- unfolding free energy [8]: 5.22 kcal/mol
- denaturant m value [9]: 5.33 kcal/mol/M
- denaturant midpoint (higher = more stable) [9]: 1.32 M
- unfolding free energy [9]: 7.06 kcal/mol
- denaturant m value [10]: 3.82 kcal/mol/M
- denaturant midpoint (higher = more stable) [10]: 1.36 M
- unfolding free energy [10]: 5.22 kcal/mol
- unfolding free energy [11]: 5.86 kcal/mol
- unfolding free energy [12]: 5.28 kcal/mol
- denaturant midpoint (higher = more stable) [13]: 1.41 M
- unfolding free energy [13]: 5.59 kcal/mol

B8: Gastrotropin wild type, P80020 (protein)
chain: MAFTGKYEFESEKNYDEFMKRLGLPDEVIERGRNFKIITEVQQDGENFTWSQSYSGGNIMSNKFTIGKECEMQTMGGKKFKATVKMEGGKVVADFPNYHQTSEVVGDKLVEISTIGDVTYERVSKRVA
- unfolding free energy [11]: 4.39 kcal/mol
- unfolding free energy [12]: 4.71 kcal/mol
